This note sets out measurements from patent US20160091504A1 (UNIVERSITE LAVAL, published 2016).

Assay [1] deals with p65 subunit of NF-κB expressed from pCMV-p65 (Homo sapiens (Human)) (UniProt Q04206). The experiment in a line: cell-based or functional assay.
The target of assay [2] is T1, p65 subunit of NF-κB expressed from pCMV-p65 (Homo sapiens (Human), UniProt Q04206 1-551, limits assumed). The experiment in a line: cell-based or functional assay.
In assay [3] the target is T1, p65 subunit of NF-κB expressed from …. The experiment in a line: co-immunoprecipitation from transfected BV-2 cells.

p65 subunit of NF-κB expressed from pCMV-p65 (Homo sapiens (Human)), sequence (Q04206 whole entry S180P): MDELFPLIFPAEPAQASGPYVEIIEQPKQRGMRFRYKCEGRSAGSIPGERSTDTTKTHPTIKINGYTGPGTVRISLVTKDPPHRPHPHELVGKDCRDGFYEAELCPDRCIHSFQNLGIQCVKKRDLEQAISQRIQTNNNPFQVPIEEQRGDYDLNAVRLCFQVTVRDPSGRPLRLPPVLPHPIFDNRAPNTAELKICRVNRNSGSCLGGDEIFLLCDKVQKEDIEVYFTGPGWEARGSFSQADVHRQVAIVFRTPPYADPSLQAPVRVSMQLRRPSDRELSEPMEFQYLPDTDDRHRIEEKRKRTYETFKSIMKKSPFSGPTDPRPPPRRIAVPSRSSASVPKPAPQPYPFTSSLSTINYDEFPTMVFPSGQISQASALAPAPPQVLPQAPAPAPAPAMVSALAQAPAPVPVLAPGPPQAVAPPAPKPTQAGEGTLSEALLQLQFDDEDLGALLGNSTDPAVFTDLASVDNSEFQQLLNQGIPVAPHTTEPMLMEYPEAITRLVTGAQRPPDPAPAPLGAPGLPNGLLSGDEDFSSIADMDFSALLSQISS
T1 sequence (Q04206 whole entry S180P): as above

In assay [1], “endogenous mouse TDP-43 (from UniProt Q921F2 1-414)” registered a decrease in NF-κB activation (4κB^wt-luc) with TDP-43 siRNA versus scrambled siRNA, 5 ng pCMV-p65 of 3 fold; a decrease in NF-κB activation (4κB^wt-luc) with TDP-43 siRNA versus scrambled siRNA, 50 ng pCMV-p65 of 2 fold; a decrease in NF-κB activation (4κB^wt-luc) with TDP-43 siRNA versus scrambled siRNA, 10 and 20 ng pCMV-p65 of 2.5 fold.

B1: TDP-43^ΔN (1-105AAs), HA-tagged deletion mutant (other, not shown: small tags and cut ends)
chain: LIVLGLPWKTTEQDLKEYFSTFGEVLMVQVKKDLKTGHSKGFGFVRFTEYETQVKVMSQRHMIDGRWCDCKLPNSKQSQDEPLRSRKVFVGRCTEDMTEDELREFFSQYGDVMDVFIPKPFRAFAFVTFADDQIAQSLCGEDLIIKGISVHISNAEPKHNSNRQLERSGRFGGNPGGFGNQGGFGNSRGGGAGLGNNQGSNMGGGMNFGAFSINPAMMAAAQAALQSSWGMMGMLASQQNQSGPSGNNQNQGNMQREPNQAFGSGNNSYSGSNSGAAIGWGSASNAGSGSGFNGGFGSSMDSKSSGWGM
With B1, in assay [2], the “NF-κB gene activation (4κB^wt-luc reporter), compared to full length TDP-43^wt” value is 2 fold.

B2: TDP-43^ΔNR1-30 (31-81 and 98-176 AAs), N-terminal and RRM-1 deletion mutant with the NLS signal attached (other)
chain: MSEYIRVTEDENDEPIEIPSEDDGTVLLSTKRKMDETDASSAVKVKLPNSKQSQDEPLRSRKVFVGRCTEDMTEDELREFFSQYGDVMDVFIPKPFRAFAFVTFADDQIAQSLCGEDLIIKGISVHISNAEPKHNSNRQLERSGRFGGNPGGFGNQGGFGNSRGGGAGLGNNQGSNMGGGMNFGAFSINPAMMAAAQAALQSSWGMMGMLASQQNQSGPSGNNQNQGNMQREPNQAFGSGNNSYSGSNSGAAIGWGSASNAGSGSGFNGGFGSSMDSKSSGWGM
notes: The printed ranges in brackets are read as the deleted residues (31-81 and 98-176); not shown: HA (hemagglutinin) tag at the extreme C-terminus
Turning to B2, in assay [2], the “level of NF-κB activation detected by the 4κB^wt-luc reporter assay” value came out at 6 fold lower. The binding result in assay [3] is on record as “no binding”.
